We go through 2 molecules from US20240174727A1, “LONG-ACTING NATRIURETIC PEPTIDES AND USES THEREOF” (Eli Lilly and Company, priority 2022, published 2024).

Numbered stars: 1 amine (or outer) side, 2 acyl side, 3 side chain; on linkers, the order of the positions; unused ones are H or OH. Bridge positions count the residues as written; N and C are the ends. Square brackets hold non-standard residues; d marks the D form. * marks the point of attachment. C20 diacid = O=C(O)CCCCCCCCCCCCCCCCCCC(=O)*; γGlu = O=C(O)[C@H](CCC(=O)[*:2])N[*:1]; 4Pal = N[C@@H](Cc1ccncc1)C(=O)O

One test addresses T1, rat NPRA (rat, UniProt P18910 29-1057).
T1 sequence (looked up): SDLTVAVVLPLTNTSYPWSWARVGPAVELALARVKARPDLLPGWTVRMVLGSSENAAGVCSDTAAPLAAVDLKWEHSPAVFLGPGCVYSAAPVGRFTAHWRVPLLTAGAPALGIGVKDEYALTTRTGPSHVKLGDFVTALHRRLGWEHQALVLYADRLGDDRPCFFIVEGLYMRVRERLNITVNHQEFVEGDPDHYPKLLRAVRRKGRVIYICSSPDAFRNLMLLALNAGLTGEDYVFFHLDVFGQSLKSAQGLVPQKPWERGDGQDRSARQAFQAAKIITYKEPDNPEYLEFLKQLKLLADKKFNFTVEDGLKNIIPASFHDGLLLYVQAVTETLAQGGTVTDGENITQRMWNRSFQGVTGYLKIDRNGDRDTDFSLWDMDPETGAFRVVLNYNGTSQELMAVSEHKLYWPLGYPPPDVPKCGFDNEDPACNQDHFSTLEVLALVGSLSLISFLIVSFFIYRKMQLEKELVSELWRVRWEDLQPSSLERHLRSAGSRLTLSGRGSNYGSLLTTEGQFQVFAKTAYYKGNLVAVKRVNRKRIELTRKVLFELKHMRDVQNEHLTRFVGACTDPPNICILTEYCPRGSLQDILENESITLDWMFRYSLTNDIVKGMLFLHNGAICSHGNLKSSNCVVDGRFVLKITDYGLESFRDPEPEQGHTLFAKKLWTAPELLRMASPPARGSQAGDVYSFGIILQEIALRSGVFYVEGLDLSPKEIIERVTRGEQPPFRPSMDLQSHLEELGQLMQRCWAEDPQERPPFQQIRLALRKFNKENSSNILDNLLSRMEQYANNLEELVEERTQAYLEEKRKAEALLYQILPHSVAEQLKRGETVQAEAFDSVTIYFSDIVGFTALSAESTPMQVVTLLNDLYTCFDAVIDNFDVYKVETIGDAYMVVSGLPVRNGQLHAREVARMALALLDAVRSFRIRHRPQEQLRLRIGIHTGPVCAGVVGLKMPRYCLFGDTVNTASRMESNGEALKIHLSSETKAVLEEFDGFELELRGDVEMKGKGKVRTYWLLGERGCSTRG
As to the kind of experiment: cell-based or functional assay.

The target in the next test is T2, human NPRA (human, UniProt P16066 33-1061).
T2 sequence (looked up): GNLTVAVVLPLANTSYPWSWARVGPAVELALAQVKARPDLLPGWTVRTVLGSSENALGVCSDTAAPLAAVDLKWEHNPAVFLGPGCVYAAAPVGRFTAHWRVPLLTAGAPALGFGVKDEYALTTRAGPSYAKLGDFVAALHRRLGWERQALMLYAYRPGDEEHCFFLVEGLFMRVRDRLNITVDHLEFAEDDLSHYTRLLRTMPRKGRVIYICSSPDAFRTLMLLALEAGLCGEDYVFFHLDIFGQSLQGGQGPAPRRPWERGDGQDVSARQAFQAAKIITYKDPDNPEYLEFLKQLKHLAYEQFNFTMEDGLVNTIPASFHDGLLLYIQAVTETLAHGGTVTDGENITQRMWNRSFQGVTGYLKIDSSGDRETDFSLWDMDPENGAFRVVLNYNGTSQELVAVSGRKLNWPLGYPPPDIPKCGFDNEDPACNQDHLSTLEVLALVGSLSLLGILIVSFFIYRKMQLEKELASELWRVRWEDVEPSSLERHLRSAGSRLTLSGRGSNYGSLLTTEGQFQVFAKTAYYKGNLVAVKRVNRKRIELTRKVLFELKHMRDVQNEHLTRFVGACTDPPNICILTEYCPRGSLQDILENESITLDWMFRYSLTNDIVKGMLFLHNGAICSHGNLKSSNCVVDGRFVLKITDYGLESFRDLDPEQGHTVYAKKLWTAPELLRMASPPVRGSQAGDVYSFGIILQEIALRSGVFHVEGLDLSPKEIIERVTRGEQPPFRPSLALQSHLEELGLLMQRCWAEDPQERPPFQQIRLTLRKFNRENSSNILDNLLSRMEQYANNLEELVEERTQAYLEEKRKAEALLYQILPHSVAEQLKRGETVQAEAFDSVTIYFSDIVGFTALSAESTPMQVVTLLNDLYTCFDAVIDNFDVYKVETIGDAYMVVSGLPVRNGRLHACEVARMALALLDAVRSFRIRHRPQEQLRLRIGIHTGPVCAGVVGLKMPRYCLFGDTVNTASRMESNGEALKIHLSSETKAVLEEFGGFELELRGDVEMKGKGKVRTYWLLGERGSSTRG
As to the kind of experiment: cell-based or functional assay.

B1: Example 14 (peptide)
peptide: {C20 diacid}-[γGlu]EKEKEKGS[4Pal]RRSSCFGGRIDRIGA[4Pal]SGLGCNSFRY-NH2
modifications: disulfide 15-31
SMILES: CC[C@H](C)[C@@H]1NC(=O)[C@H](CCCNC(=N)N)NC(=O)[C@H](CC(=O)O)NC(=O)[C@H]([C@@H](C)CC)NC(=O)[C@H](CCCNC(=N)N)NC(=O)CNC(=O)CNC(=O)[C@H](Cc2ccccc2)NC(=O)[C@@H](NC(=O)[C@H](CO)NC(=O)[C@H](CO)NC(=O)[C@H](CCCNC(=N)N)NC(=O)[C@H](CCCNC(=N)N)NC(=O)[C@H](Cc2ccncc2)NC(=O)[C@H](CO)NC(=O)CNC(=O)[C@H](CCCCN)NC(=O)[C@H](CCC(=O)O)NC(=O)[C@H](CCCCN)NC(=O)[C@H](CCC(=O)O)NC(=O)[C@H](CCCCN)NC(=O)[C@H](CCC(=O)O)NC(=O)CC[C@H](NC(=O)CCCCCCCCCCCCCCCCCCC(=O)O)C(=O)O)CSSC[C@@H](C(=O)N[C@@H](CC(N)=O)C(=O)N[C@@H](CO)C(=O)N[C@@H](Cc2ccccc2)C(=O)N[C@@H](CCCNC(=N)N)C(=O)N[C@@H](Cc2ccc(O)cc2)C(N)=O)NC(=O)CNC(=O)[C@H](CC(C)C)NC(=O)CNC(=O)[C@H](CO)NC(=O)[C@H](Cc2ccncc2)NC(=O)[C@H](C)NC(=O)CNC1=O
For B1, in the test with rat NPRA, the “cGMP Assay (EC50, pM) w/BSA” value came to 37800 pM and the “cGMP Assay (EC50, pM) w/Casein” value came to 1170 pM. Besides, in the test with human NPRA, the “cGMP Assay (EC50, pM) w/BSA” value was found to be 27700 pM and the “cGMP Assay (EC50, pM) w/Casein” value was 685 pM.

B2: Example 15 (peptide)
peptide: {C20 diacid}-[γGlu]EKEKEKGS[4Pal]RRSSCFGGRIDRIGAQSGLGCNSFR[4Pal]-NH2
modifications: disulfide 15-31
SMILES: CC[C@H](C)[C@@H]1NC(=O)[C@H](CCCNC(=N)N)NC(=O)[C@H](CC(=O)O)NC(=O)[C@H]([C@@H](C)CC)NC(=O)[C@H](CCCNC(=N)N)NC(=O)CNC(=O)CNC(=O)[C@H](Cc2ccccc2)NC(=O)[C@@H](NC(=O)[C@H](CO)NC(=O)[C@H](CO)NC(=O)[C@H](CCCNC(=N)N)NC(=O)[C@H](CCCNC(=N)N)NC(=O)[C@H](Cc2ccncc2)NC(=O)[C@H](CO)NC(=O)CNC(=O)[C@H](CCCCN)NC(=O)[C@H](CCC(=O)O)NC(=O)[C@H](CCCCN)NC(=O)[C@H](CCC(=O)O)NC(=O)[C@H](CCCCN)NC(=O)[C@H](CCC(=O)O)NC(=O)CC[C@H](NC(=O)CCCCCCCCCCCCCCCCCCC(=O)O)C(=O)O)CSSC[C@@H](C(=O)N[C@@H](CC(N)=O)C(=O)N[C@@H](CO)C(=O)N[C@@H](Cc2ccccc2)C(=O)N[C@@H](CCCNC(=N)N)C(=O)N[C@@H](Cc2ccncc2)C(N)=O)NC(=O)CNC(=O)[C@H](CC(C)C)NC(=O)CNC(=O)[C@H](CO)NC(=O)[C@H](CCC(N)=O)NC(=O)[C@H](C)NC(=O)CNC1=O
Turning to B2, in the test with rat NPRA, the “cGMP Assay (EC50, pM) w/BSA” value worked out at 32600 pM and the “cGMP Assay (EC50, pM) w/Casein” value was determined as 254 pM. For the same molecule, in the test with human NPRA, the “cGMP Assay (EC50, pM) w/BSA” value is 57300 pM and the “cGMP Assay (EC50, pM) w/Casein” value turned out to be 912 pM.
